# Test results reported in the supplement of paper PMC6757056.
# ± gives the standard deviation of the averaged measurements.
# B1: library; a variant is named by its letters at N, in order (parent)
# chain: GCUGUCACCGGUGUAUUACCCUAGUGGUCGACCGGUCUGAUGAGUCUNNNNNNAGACGAAACAGC
# How the values were obtained:
# hypoxanthine [1] = variants of: B1; assay: normalized RNA/DNA level with ligand (relative to sTRSVctl = 100) (log10 (% of sTRSVctl)); ligand: hypoxanthine (xanthine aptamer); higher = less ribozyme self-cleavage, higher mRNA level; conditions: ligand concentration (+) RNA-Seq: 5 mM, HEK293T, reporter: mCherry (pCS4076), ligand present: yes
# Summary of the method: (§1)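 Library plasmids carrying ribozyme switches linked to mCherry, or to eGFP in some ligand experiments, were transfected into HEK293T at 4 µg per 6-well well, with any ligand added 1 h earlier. Seventy-two hours on, total RNA was extracted with EDTA and reverse-transcribed, amplified, barcoded and sequenced. RNA level was RNA over DNA reads normalized to a spiked-in non-cleaving sequence or to the top sequences, then scaled and log-transformed. The top set was 25 sequences, the transform was ×100 and log10, and sequences needed ≥100 DNA reads.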
# hypoxanthine [2] = variants of: B1; assay: normalized RNA/DNA level without ligand (relative to sTRSVctl = 100) (log10 (% of sTRSVctl)); ligand: hypoxanthine (xanthine aptamer); higher = less ribozyme self-cleavage, higher mRNA level; conditions: HEK293T, reporter: mCherry (pCS4076), ligand present: no
# Summary of the method: as §1
Variant,normalized RNA/DNA level with ligand (log10) (hypoxanthine [1]),normalized RNA/DNA level without ligand (log10) (hypoxanthine [2])
GCUGUCACCGGUGUAUUACCCUAGUGGUCGACCGGUCUGAUGAGUCUGACAACAGACGAAACAGC [GACAAC],1.93 ± 0.072,1.73 ± 0.021
GCUGUCACCGGUGUAUUACCCUAGUGGUCGACCGGUCUGAUGAGUCUAAAGUCAGACGAAACAGC [AAAGUC],1.98 ± 0.07,1.919 ± 0.0031
GCUGUCACCGGUGUAUUACCCUAGUGGUCGACCGGUCUGAUGAGUCUGAAGUAAGACGAAACAGC [GAAGUA],1.88 ± 0.05,1.741 ± 0.0072
GCUGUCACCGGUGUAUUACCCUAGUGGUCGACCGGUCUGAUGAGUCUGAAGUCAGACGAAACAGC [GAAGUC],1.97 ± 0.022,1.87 ± 0.035
GCUGUCACCGGUGUAUUACCCUAGUGGUCGACCGGUCUGAUGAGUCUCACAAUAGACGAAACAGC [CACAAU],1.89 ± 0.053,1.78 ± 0.034
GCUGUCACCGGUGUAUUACCCUAGUGGUCGACCGGUCUGAUGAGUCUCACAAGAGACGAAACAGC [CACAAG],1.877 ± 0.0098,1.676 ± 0.013
GCUGUCACCGGUGUAUUACCCUAGUGGUCGACCGGUCUGAUGAGUCUCACAAAAGACGAAACAGC [CACAAA],1.8939 ± 0.00066,1.76 ± 0.023
GCUGUCACCGGUGUAUUACCCUAGUGGUCGACCGGUCUGAUGAGUCUCACAACAGACGAAACAGC [CACAAC],1.93 ± 0.027,1.839 ± 0.018
GCUGUCACCGGUGUAUUACCCUAGUGGUCGACCGGUCUGAUGAGUCUUACAACAGACGAAACAGC [UACAAC],1.97 ± 0.035,1.82 ± 0.081
GCUGUCACCGGUGUAUUACCCUAGUGGUCGACCGGUCUGAUGAGUCUUACAAAAGACGAAACAGC [UACAAA],1.88 ± 0.063,1.755 ± 0.0034
GCUGUCACCGGUGUAUUACCCUAGUGGUCGACCGGUCUGAUGAGUCUCAAUCUAGACGAAACAGC [CAAUCU],2.01 ± 0.059,1.85 ± 0.042
GCUGUCACCGGUGUAUUACCCUAGUGGUCGACCGGUCUGAUGAGUCUCAAUCGAGACGAAACAGC [CAAUCG],1.98 ± 0.083,1.89 ± 0.019
GCUGUCACCGGUGUAUUACCCUAGUGGUCGACCGGUCUGAUGAGUCUCAAUCAAGACGAAACAGC [CAAUCA],1.91 ± 0.069,1.77 ± 0.0087
GCUGUCACCGGUGUAUUACCCUAGUGGUCGACCGGUCUGAUGAGUCUCAAGUUAGACGAAACAGC [CAAGUU],1.93 ± 0.021,1.939 ± 0.0037
GCUGUCACCGGUGUAUUACCCUAGUGGUCGACCGGUCUGAUGAGUCUCAAGUGAGACGAAACAGC [CAAGUG],1.92 ± 0.026,1.81 ± 0.042
GCUGUCACCGGUGUAUUACCCUAGUGGUCGACCGGUCUGAUGAGUCUAACAACAGACGAAACAGC [AACAAC],1.899 ± 0.015,1.8557 ± 0.001
GCUGUCACCGGUGUAUUACCCUAGUGGUCGACCGGUCUGAUGAGUCUAACAAAAGACGAAACAGC [AACAAA],1.91 ± 0.035,1.785 ± 0.017
GCUGUCACCGGUGUAUUACCCUAGUGGUCGACCGGUCUGAUGAGUCUUAAUACAGACGAAACAGC [UAAUAC],1.929 ± 0.013,1.79 ± 0.026
GCUGUCACCGGUGUAUUACCCUAGUGGUCGACCGGUCUGAUGAGUCUUAAUUGAGACGAAACAGC [UAAUUG],1.92 ± 0.051,1.74 ± 0.02
GCUGUCACCGGUGUAUUACCCUAGUGGUCGACCGGUCUGAUGAGUCUGAAUUUAGACGAAACAGC [GAAUUU],1.964 ± 0.015,1.89 ± 0.022
GCUGUCACCGGUGUAUUACCCUAGUGGUCGACCGGUCUGAUGAGUCUAAAUGUAGACGAAACAGC [AAAUGU],1.865 ± 0.013,1.633 ± 0.013
